These results are taken from PMC12814185, “Receptor-Mediated Shuttling of a D‑Amino Acid Peptide Achieves High Nanomolar Cytosolic Concentrations” (Journal of the American Chemical Society, 2025).

The target of the test is recombinant human GST-MDM2 (human) (UniProt Q00987). Description: fluorescence polarisation.
recombinant human GST-MDM2 (human), sequence (Q00987 whole entry): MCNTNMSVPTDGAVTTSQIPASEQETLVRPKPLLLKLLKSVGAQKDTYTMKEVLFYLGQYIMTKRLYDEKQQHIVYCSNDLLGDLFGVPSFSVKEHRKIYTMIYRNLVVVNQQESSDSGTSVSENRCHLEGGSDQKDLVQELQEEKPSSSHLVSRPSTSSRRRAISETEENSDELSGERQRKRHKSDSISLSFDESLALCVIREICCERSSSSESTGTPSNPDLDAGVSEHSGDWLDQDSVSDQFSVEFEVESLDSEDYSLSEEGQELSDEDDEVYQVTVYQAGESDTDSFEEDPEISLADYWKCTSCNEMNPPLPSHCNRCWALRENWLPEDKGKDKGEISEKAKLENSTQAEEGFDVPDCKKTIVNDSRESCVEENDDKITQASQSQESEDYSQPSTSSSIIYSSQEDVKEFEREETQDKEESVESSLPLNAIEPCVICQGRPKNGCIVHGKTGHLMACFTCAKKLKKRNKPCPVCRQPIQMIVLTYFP

Regarding Cy5-r9-PMIγ (peptide), the Kd is 57 nM.
